Reference: publication PMC10244618
Several values for one entry are separate records, joined by “and”; a condition that tells them apart may be missing. Equal entries are not always repeated.

B1: NF2 (merlin) isoform 7, human, full length (507 aa, lacks exons 2-3 = isoform-1 residues 39-121; exon-16 C-terminus), P35240-4 (parent)
chain: MAGAIASRMSFSSLKRKQPKTFTVRIVTMDAEMEFNCEVKKQILDEKIYCPPEASVLLASYAVQAKYGDYDPSVHKRGFLAQEELLPKRVINLYQMTPEMWEERITAWYAEHRGRARDEAEMEYLKIAQDLEMYGVNYFAIRNKKGTELLLGVDALGLHIYDPENRLTPKISFPWNEIRNISYSDKEFTIKPLDKKIDVFKFNSSKLRVNKLILQLCIGNHDLFMRRRKADSLEVQQMKAQAREEKARKQMERQRLAREKQMREEAERTRDELERRLLQMKEEATMANEALMRSEETADLLAEKAQITEEEAKLLAQKAAEAEQEMQRIKATAIRTEEEKRLMEQKVLEAEVLALKMAEESERRAKEADQLKQDLQEAREAERRAKQKLLEIATKPTYPPMNPIPAPLPPDIPSFNLIGDSLSFDFKDTDMKRLSMEIEKEKVEYMEKSKHLQEQLNELKTEIEALKLKERETALDILHNENSDRGGSSKHNTIKKPQAQGRRPICI

Variants of: B1
Assay: reverse yeast two-hybrid deep mutational scan (rY2H-seq): NF2 isoform 7 mutant library as bait mated with wild-type prey strains; selection on medium lacking adenine for non-interacting pairs; NextSeq paired-end sequencing; enrichment vs …
Conditions: yeast diploids after mating (RBait_S3 x RPrey_S3), 30 °C, selection for reporter genes on NB agar, HIGHER = WEAKER BINDING (the opposite of display enrichments): higher = stronger loss of interaction: reverse Y2H selects yeast in which bait and prey do NOT interact (growth without adenine), so a …, hits-only table, scale: rY2H score, numbering: uniprot, sequence starts at 1
[1] = with EMILIN1 (elastin microfibril interfacer 1), Q9Y6C2, human ABL2 co-expressed as the kinase-dead K35M mutant …
[2] = with KDM1A (lysine-specific histone demethylase 1A; the table's label AOF2 is a gene synonym of KDM1A), O60341, human ABL2 co-expressed as the kinase-dead K35M mutant …
[3] = with KDM1A (lysine-specific histone demethylase 1A; the table's label AOF2 is a gene synonym of KDM1A), O60341, human tyrosine kinase ABL2 co-expressed as the active kinase …
[4] = with PIK3R3 (phosphatidylinositol 3-kinase regulatory subunit gamma), Q92569, human tyrosine kinase ABL2 co-expressed as the active kinase …
[5] = with EMILIN1 (elastin microfibril interfacer 1), Q9Y6C2, human tyrosine kinase ABL2 co-expressed as the active kinase …
[6] = with NF2 C-terminal domain (wild type; homomeric NF2-NF2 interaction), P35240, human ABL2 co-expressed as the kinase-dead K35M mutant …, partner unresolved

enrichment [1] | enrichment [2] | enrichment [3] | enrichment [4] | enrichment [5] | enrichment [6] | Variant
4.91 | 3.06 | 8.45 | 5.71 |  |  | Y161K
3.13 and 2.01 |  |  | 5.85 | 6.81 |  | Y161W
2.53 |  | 2.23 | 2.72 | 2.63 | 2.34 | Y161A
2.05 | 1.63 | 3.82 | 3.82 |  |  | K313A
1.53 |  |  | 4.79 | 1.69 |  | E323K
1.95 |  |  |  |  |  | R268P
2.05 | 1.8 and 3.49 |  | 2.73 |  |  | F415K
1.73 | 1.94 |  | 2.04 and 2.73 |  |  | S172P
1.5 |  |  |  | 5.32 | 2.76 | R364E
4.89 | 6.72 | 1.86 |  | 3.65 | 1.94 | M326E
1.55 |  |  |  |  |  | Q327K
2.5 |  |  |  |  |  | Q327Y
3.03 | 2.88 |  |  | 2.65 |  | P396L
1.61 and 2.83 |  | 4.55 | 1.66 |  |  | P396A
3.39 | 7.46 and 14.7 | 7.51 |  | 9.82 and 9.59 | 2.82 | L58K
3.83 |  |  |  |  |  | N457L
3.08 | 7.24 | 5.95 | 12.3 | 3.88 | 1.78 | P163L
1.95 |  |  |  | 2.74 |  | K88R
2.48 |  |  |  |  |  | M357K
2.55 |  |  | 3.12 |  |  | R328E
2.29 | 1.66 |  |  |  |  | R328A
2.26 | 3.08 and 3.61 | 1.95 |  |  | 3.25 and 1.98 | L156P
1.51 | 1.6 |  |  |  |  | L353W
2.83 and 2.82 | 7.31 and 3.66 |  | 4.51 |  |  | Q373A

enrichment [1] | enrichment [2] | enrichment [3] | enrichment [4] | enrichment [5] | enrichment [6] | Variant
2.52 |  |  |  | 3.17 |  | Q373Y
1.4 |  |  |  | 1.64 |  | K246R
3.03 and 1.45 |  |  |  |  |  | K246L
2.19 |  |  |  | 2.64 |  | R293E
1.56 | 2.38 | 6.57 | 10.8 and 3.63 | 4.55 and 5.13 | 1.81 | R293A
3.32 and 4.31 | 3.69 |  |  | 6.23 and 2.68 |  | L151R
2.84 and 2.55 |  |  |  |  |  | E472R
4.43 |  |  |  |  |  | L301K
7.29 | 4.8 |  |  | 1.77 | 3.42 | L301E
2.04 |  |  |  |  | 2.35 | D420A
1.75 | 2.24 and 3.28 | 1.43 and 2.22 | 3.36 |  |  | K388A
6.79 |  |  |  | 1.94 |  | E367L
1.72 |  | 4.1 and 4.23 | 2.99 | 3.25 |  | E367A
2.87 and 2.64 | 2.17 |  |  |  |  | T397R
 | 7.44 |  |  | 4.23 and 3.34 |  | T332E
21.9 |  |  |  |  | 18 | H159S
1.9 |  |  |  |  |  | N402T
3.23 | 1.77 and 4.25 | 2.45 |  | 1.72 | 1.43 | P399E
2.63 |  |  |  |  |  | D425A
4.95 |  |  |  |  |  | E265K
3 | 4.07 | 3.51 |  | 2.26 and 2.09 | 1.91 and 3.47 | I329L
1.95 |  |  |  | 4.8 and 3.36 |  | A350K
3.01 | 4.93 |  |  | 3.29 |  | L348S
2.15 |  |  |  | 2.19 | 1.71 | L348E

enrichment [1] | enrichment [2] | enrichment [3] | enrichment [4] | enrichment [5] | enrichment [6] | Variant
2.08 |  |  |  | 6.29 |  | G146L
1.46 |  | 2.07 | 5.44 | 1.83 |  | Q387L
3.8 | 2.62 and 6.59 |  |  |  |  | L315E
2.97 | 3.6 |  | 5.98 | 3.9 |  | K66A
2.7 |  | 3.77 | 4.55 |  |  | K66E
2.88 and 3.18 | 3.76 | 2.07 and 4.72 | 1.45 | 3.19 |  | M343E
3.5 |  | 3.6 |  | 1.81 |  | M343K
2.55 and 1.66 |  |  |  | 2.55 and 2.14 |  | M343A
2.66 and 1.9 | 2.96 | 2.24 |  | 2.2 and 3.37 | 5.45 | T308K
4.89 | 2.33 |  |  | 2.02 | 2.47 | T308D
2.33 |  |  |  |  | 3.16 | T308E
3.93 |  |  |  |  |  | R104E
1.53 |  |  |  |  |  | L390W
5.29 |  |  |  | 2.04 |  | H491A
1.59 |  |  |  |  |  | H491N
1.7 |  |  |  |  | 2.48 | H491K
 |  |  |  | 2 |  | E391L
1.8 and 2.26 | 2.15 and 1.62 | 10.1 and 8.48 |  | 7.41 and 6.52 | 1.76 | G157L
6.42 |  | 5.01 |  |  | 2.36 and 4.41 | G157A
1.63 |  |  |  |  |  | R226G
 |  |  |  | 1.73 |  | N480A
2.08 |  |  |  |  | 3.07 | Q376L
2.77 |  |  |  | 1.79 and 2.41 | 1.47 and 2.48 and 1.86 | E382K
5.53 and 3.24 | 1.68 |  |  | 4.46 and 4.21 |  | K372E

enrichment [1] | enrichment [2] | enrichment [3] | enrichment [4] | enrichment [5] | enrichment [6] | Variant
1.9 |  |  |  |  |  | T429L
1.6 |  |  | 1.74 |  | 3.03 | A385K
1.74 | 1.79 | 1.94 |  |  | 1.47 and 2.16 | A385L
2.14 |  |  |  |  |  | N482K
1.38 |  |  |  |  |  | N180T
2.39 |  |  |  | 2.1 and 5.12 |  | M401W
2.05 | 3.12 | 3.23 and 2.41 | 1.56 |  |  | M401A
3.71 | 2.65 |  |  |  |  | E272A
1.57 | 3.01 and 2.96 | 1.77 | 2.55 and 1.61 and 4.74 |  | 3.42 and 3.26 | E272K
3.15 and 2.54 | 6 and 7.17 | 1.81 | 8.43 | 3.7 | 2.17 and 4.23 | N165L
5.14 and 5.74 | 11.1 and 8.25 | 4.76 and 3.86 | 7.65 and 9.27 | 3.48 and 2.42 | 5.73 | N165E
3.8 and 4.08 | 5.23 and 4.34 | 11.8 |  | 5.59 and 4.51 | 3.7 and 6.3 | N165A
2.92 and 3.34 |  |  |  |  |  | A155L
2.4 |  | 1.71 |  |  |  | A240S
3.02 |  |  |  |  |  | E360K
2.14 | 1.54 |  |  |  |  | E360G
2.06 |  |  | 2.03 |  |  | I412L
6.13 |  |  |  |  | 2.57 | I178K
4.7 |  |  |  |  |  | M122E
5.54 |  | 2.38 |  |  |  | L256A
10.7 and 8.14 | 15.4 | 29 | 25.9 |  | 7.54 | A59L
4.18 and 2.17 |  | 2.31 |  | 2.34 and 1.8 |  | E344L
6.34 and 11.1 | 10.3 |  |  |  |  | E344G
